The labels stand for the following.
B1: GST-tagged PAK1 (Y270-H545) (domain or fragment)
chain: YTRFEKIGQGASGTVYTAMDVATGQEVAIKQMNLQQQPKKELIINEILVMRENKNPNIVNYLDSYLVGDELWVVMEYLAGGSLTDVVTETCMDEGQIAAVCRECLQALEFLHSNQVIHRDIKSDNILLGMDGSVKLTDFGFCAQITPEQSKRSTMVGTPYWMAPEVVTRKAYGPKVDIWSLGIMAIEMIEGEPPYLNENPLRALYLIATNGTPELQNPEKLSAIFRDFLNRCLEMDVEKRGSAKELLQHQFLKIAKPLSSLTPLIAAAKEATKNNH

What all share (test): ITC
(In general: In ITC the heat of successive injections is recorded.)

The target in assay [1] is sortilin-cd peptide B (human).
For assay [2], the target named is sortilin-cd peptide C (human).
Assay [3] deals with sortilin-cd peptide A (human).
Assay [4] addresses B1.

Chain of sortilin-cd peptide C (human) (Q13153 270-545): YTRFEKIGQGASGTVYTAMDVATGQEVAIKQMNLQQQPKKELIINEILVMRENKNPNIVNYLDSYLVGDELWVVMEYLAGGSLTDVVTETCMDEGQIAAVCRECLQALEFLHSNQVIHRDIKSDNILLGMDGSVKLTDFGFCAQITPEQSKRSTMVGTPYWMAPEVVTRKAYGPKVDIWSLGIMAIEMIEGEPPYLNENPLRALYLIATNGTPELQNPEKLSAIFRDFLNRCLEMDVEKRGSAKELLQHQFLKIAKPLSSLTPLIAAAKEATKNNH
Chain of sortilin-cd peptide B (human) (Q13153 270-545): as above
Chain of sortilin-cd peptide A (human) (Q13153 270-545): as above

On to B1, for which the Kd in assay [1] was 12.6 µM; in assay [2], 3.6 µM; in assay [3] it was 14.1 µM.

B2: complete sortilin cytoplasmic domain (K779-E831), GST tag removed (domain or fragment)
chain: KKYVCGGRFLVHRYSVLQQHAEANGVDGVDALDTASHTNKSGYHDDSDEDLLE
As for B2, binding in assay [4] was put at a Kd of 1.8 µM.

Broadly, the Kd is the free concentration of one partner at which half of the binding sites on the other are occupied at equilibrium, for simple one-to-one binding. Lower therefore signals tighter binding.

The record behind these values is PMC6965034 (2019).
